Measurements from patent publication US20260167721A1 (ABLEXIS, published 2026).

B1: CD3 × CD33-BspAb73 (bispecific antibody)
scFv-Fc: EVQLVESGGGLVKPGGSLRLSCAASGFTFSSYSMNWVRQAPGKCLEWVSSVNSRGSYIYYADSVKGRFTISRDNAKDSLYLQMNSLRADDTAVYYCARDRRELLLDYWGQGTLVTVSSGGGGSGGGGSGGGGSGGGGSSYELTQPPSVSVSPGQTARITCSGDALPKKYAYWYQQKSGQAPVLVIYEDSKRPSGIPERFSGSSSGTMATLTISGAQVEDEADYYCYSTDSSGNHSWVFGCGTKLTVLGGGGSDKTHTCPPCPAPEFEGGPSVFLFPPKPKDTLMISRTPEVTCVVVDVSHEDPEVKFNWYVDGVEVHNAKTKPREEQYNSTYRVVSVLTVLHQDWLNGKEYKCKVSNKALPASIEKTISKAKGQPREPQVYTLPPCREEMTKNQVSLWCLVKGFYPSDIAVEWESNGQPENNYKTTPPVLDSDGSFFLYSKLTVDKSRWQQGNVFSCSVMHEALHNHYTQKSLSLSPGK
heavy: EVQLVQSGAEVKKPGSSVKVSCKASGYTITDSNIHWVRQAPGQSLEWIGYIYPYNGGTDYNQKFKNRATLTVDNPTNTAYMELSSLRSEDTAFYYCVNGNPWLAYWGQGTLVTVSSASTKGPSVFPLAPSSKSTSGGTAALGCLVKDYFPEPVTVSWNSGALTSGVHTFPAVLQSSGLYSLSSVVTVPSSSLGTQTYICNVNHKPSNTKVDKRVEPKSCDKTHTCPPCPAPEFEGGPSVFLFPPKPKDTLMISRTPEVTCVVVDVSHEDPEVKFNWYVDGVEVHNAKTKPREEQYNSTYRVVSVLTVLHQDWLNGKEYKCKVSNKALPASIEKTISKAKGQPREPQVCTLPPSREEMTKNQVSLSCAVKGFYPSDIAVEWESNGQPENNYKTTPPVLDSDGSFFLVSKLTVDKSRWQQGNVFSCSVMHEALHNRFTQKSLSLSPGK
light: DIQLTQSPSTLSASVGDRVTITCRASESLDNYGIRFLTWFQQKPGKAPKLLMYAASNQGSGVPSRFSGSGSGTEFTLTISSLQPDDFATYYCQQTKEVPWSFGQGTKVEVKRTVAAPSVFIFPPSDEQLKSGTASVVCLLNNFYPREAKVQWKVDNALQSGNSQESVTEQDSKDSTYSLSSTLTLSKADYEKHKVYACEVTHQGLSSPVTKSFNRGEC
notes: KiH heterodimer
B2: CD3 × CD33-BspAb75 (bispecific antibody)
scFv-Fc: EVQLVESGGGLVKPGGSLRLSCAASGFTFSSYSMNWVRQAPGKCLEWVSSISRRSGYIYYADSVKGRFTLSRDNAKKSLYLQMNSLRAEDTAVYYCARDLNWAFDYWGQGTLVTVSSGGGGSGGGGSGGGGSGGGGSNFMLTQPHSVSESPGKTVTISCTRSSGSIASNYVQWYQQRPGSSPTTVIYEDNHRPSGVPDRFSGSIDSSSNSASLTIAGLKTEDEADYYCQSYDSSNVVFGCGTKLTVLGGGGSDKTHTCPPCPAPEFEGGPSVFLFPPKPKDTLMISRTPEVTCVVVDVSHEDPEVKFNWYVDGVEVHNAKTKPREEQYNSTYRVVSVLTVLHQDWLNGKEYKCKVSNKALPASIEKTISKAKGQPREPQVYTLPPCREEMTKNQVSLWCLVKGFYPSDIAVEWESNGQPENNYKTTPPVLDSDGSFFLYSKLTVDKSRWQQGNVFSCSVMHEALHNHYTQKSLSLSPGK
heavy: B1 heavy
light: B1 light
notes: KiH heterodimer
B3: CD3 × CD33-BspAb78 (bispecific antibody)
chain 1: EVQLVESGGGLVKFGGSLRLSCAASGFTFSRYSMNWVRQAPGKCLEWVSSISSSSSYKYYADSVKGRFTISRDNAKNSLYLQMNSLRAEDTAVYYCAREGGNSHGMDVWGQGTTVTVSSGGGGSGGGGSGGGGSGGGGSNFMLTQPHSVSESPGKTVTISCTRSSGSIASNYVQWYQQRPGSSPTTVIYEDNQRPSGVPDRFSGSIDSSSNSASLTISGLKTEDEADYYCQSYDSSNRVFGCGTKLTVLDKTHTCPPCPAPEFEGGPSVFLFPPKPKDTLMISRTPEVTCVVVDVSHEDPEVKFNWYVDGVEVHNAKTKPREEQYNSTYRVVSVLTVLHQDWLNGKEYKCKVSNKALPASIEKTISKAKGQPREPQVYTLPPCREEMTKNQVSLWCLVKGFYPSDIAVEWESNGQPENNYKTTPPVLDSDGSFFLYSKLTVDKSRWQQGNVFSCSVMHEALHNHYTQKSLSLSPGK
chain 2: B1 heavy
chain 3: B1 light
B4: CD3 × CD33-BspAb77 (bispecific antibody)
chain 1: EVQLVESGGGLVKPGGSLRLSCAASGFTFSTYIMNWVRQAPGKCLEWVSSISSSRSYIYYADSVKGRFTISRDNAKNSLYLQMNSLRAEDTAVYYCAREDRYRLFFDYWGQGTLVTVSSGGGGSGGGGSGGGGSGGGGSNFMLTQPHSVSESPGKTVTISCTRSSGSIASNYVQWYQQRPGSSPTTVIYEDNQRPSGVPDRFSGSIDSSSNSASLTISGLKTEDEADYYCQSYDSSNRVFGCGTKLTVLDKTHTCPPCPAPEFEGGPSVFLFPPKPKDTLMISRTPEVTCVVVDVSHEDPEVKFNWYVDGVEVHNAKTKPREEQYNSTYRVVSVLTVLHQDWLNGKEYKCKVSNKALPASIEKTISKAKGQPREPQVYTLPPCREEMTKNQVSLWCLVKGFYPSDIAVEWESNGQPENNYKTTPPVLDSDGSFFLYSKLTVDKSRWQQGNVFSCSVMHEALHNHYTQKSLSLSPGK
chain 2: B1 heavy
chain 3: B1 light
B5: CD3 × CD33-BspAb76 (bispecific antibody)
chain 1: EVQLVESGGGLVKPGGSLRLSCAASGFTFSSYSMNWVRQAPGKCLEWVSSISRRSGYIYYADSVKGRFTLSRDNAKKSLYLQMNSLRAEDTAVYYCARDLNWAFDYWGQGTLVTVSSGGGGSGGGGSGGGGSGGGGSNFMLTQPHSVSESPGKTVTISCTRSSGSIASNYVQWYQQRPGSSPTTVIYEDNHRPSGVPDRFSGSIDSSSNSASLTIAGLKTEDEADYYCQSSDSSNVVFGCGTKLTVLDKTHTCPPCPAPEFEGGPSVFLFPPKPKDTLMISRTPEVTCVVVDVSHEDPEVKFNWYVDGVEVHNAKTKPREEQYNSTYRVVSVLTVLHQDWLNGKEYKCKVSNKALPASIEKTISKAKGQPREPQVYTLPPCREEMTKNQVSLWCLVKGFYPSDIAVEWESNGQPENNYKTTPPVLDSDGSFFLYSKLTVDKSRWQQGNVFSCSVMHEALHNHYTQKSLSLSPGK
chain 2: B1 heavy
chain 3: B1 light

Biological target: T1, human CD3 (TCR/CD3 complex on the cell surface) (human, UniProt P07766 23-207; P04234 22-171; P09693 23-182)
T1 construct: whole, on cells; Native CD3 on human Pan-T cells or Jurkat wild-type cells; also called CD3 on Pan-T cells; CD3 on Jurkat WT cells
Test: flow cytometry, Jurkat WT gMFI over Jurkat KO gMFI, 10 ug/mL

T1 sequence (P07766 23-207, chain 1 of 3): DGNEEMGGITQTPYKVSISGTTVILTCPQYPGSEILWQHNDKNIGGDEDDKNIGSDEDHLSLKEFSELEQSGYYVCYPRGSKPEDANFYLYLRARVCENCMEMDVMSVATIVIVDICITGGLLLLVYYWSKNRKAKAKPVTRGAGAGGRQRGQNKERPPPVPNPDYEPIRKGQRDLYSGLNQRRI
T1 sequence (P04234 22-171, chain 2 of 3): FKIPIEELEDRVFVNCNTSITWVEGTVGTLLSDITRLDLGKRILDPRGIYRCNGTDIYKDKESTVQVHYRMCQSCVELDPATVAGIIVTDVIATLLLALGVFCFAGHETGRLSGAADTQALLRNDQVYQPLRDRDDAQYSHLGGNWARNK
T1 sequence (P09693 23-182, chain 3 of 3): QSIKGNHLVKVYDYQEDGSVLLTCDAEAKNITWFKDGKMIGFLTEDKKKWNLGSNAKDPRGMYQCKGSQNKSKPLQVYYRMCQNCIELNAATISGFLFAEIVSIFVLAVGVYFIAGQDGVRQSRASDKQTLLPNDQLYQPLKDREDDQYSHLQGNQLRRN

| Jurkat WT/KO (Fold) | Binder |
| --- | --- |
| 3 fold | B1 |
| 7.2 fold | B2 |
| 9.9 fold | B3 |
| 8.6 fold | B4 |
| 4.4 fold | B5 |

Biological target: T1, human CD3 (TCR/CD3 complex on the cell …)
Test: flow cytometry, Pan-T cells, 1 ug/mL

| % Positive | gMFI | Binder |
| --- | --- | --- |
| 17.3% | 4180 gMFI | B1 |
| 99.2% | 69800 gMFI | B2 |
| 98% | 66500 gMFI | B3 |
| 92.5% | 37800 gMFI | B4 |
| 50.2% | 6790 gMFI | B5 |

Biological target: T1, human CD3 (TCR/CD3 complex on the cell …)
Test: flow cytometry, Pan-T cells, 10 ug/mL

| % Positive | gMFI | Binder |
| --- | --- | --- |
| 95.9% | 22000 gMFI | B1 |
| 99.7% | 149000 gMFI | B2 |
| 99.8% | 225000 gMFI | B3 |
| 99.8% | 188000 gMFI | B4 |
| 99.5% | 43400 gMFI | B5 |

Biological target: T1, human CD3 (TCR/CD3 complex on the cell …)
Test: flow cytometry, Jurkat WT cells, 1 ug/mL

| gMFI | Binder |
| --- | --- |
| 2510 gMFI | B1 |
| 11300 gMFI | B2 |
| 20300 gMFI | B3 |
| 8960 gMFI | B4 |
| 3180 gMFI | B5 |

Biological target: T1, human CD3 (TCR/CD3 complex on the cell …)
Test: flow cytometry, Jurkat WT gMFI over Jurkat KO gMFI, 1 ug/mL

| Jurkat WT/KO (Fold) | Binder |
| --- | --- |
| 1.2 fold | B1 |
| 5.3 fold | B2 |
| 6.6 fold | B3 |
| 3.6 fold | B4 |
| 1.5 fold | B5 |

Biological target: T1, human CD3 (TCR/CD3 complex on the cell …)
Test: flow cytometry, Jurkat WT cells, 10 ug/mL

| gMFI | Binder |
| --- | --- |
| 6110 gMFI | B1 |
| 15900 gMFI | B2 |
| 28800 gMFI | B3 |
| 22100 gMFI | B4 |
| 9780 gMFI | B5 |
